Source: publication PMC5546038

What was measured:
Assay in all cases: ELISA
[1] = biological target: soluble recombinant tetrameric human DC-SIGN (UniProt Q9NNX6); settings: Fc 20 µg/ml (highest point of the titration); parent: est. 0.98; read off a plot
[2] = biological target: C1q; settings: Ab 20 µg/ml (highest point of the titration); parent: est. 1.7; read off a plot
[3] = biological target: human Siglec-1 (UniProt Q9BZZ2); settings: Fc 50 µg/ml (highest point of the titration); parent: est. 1.2; read off a plot
[4] = biological target: human FcγRIIIB (UniProt O75015); settings: Fc 20 µg/ml (highest point of the titration); parent: est. 0.19; read off a plot
[5] = biological target: human FcγRIIB (UniProt P31994); settings: Fc 20 µg/ml (highest point of the titration); parent: est. 0.20; read off a plot
[6] = biological target: human FcγRI (UniProt P12314); settings: Fc 20 µg/ml (highest point of the titration); parent: est. 2.1; read off a plot
[7] = biological target: human FcγRIIA (UniProt P12318); settings: Fc 20 µg/ml (highest point of the titration); parent: est. 0.53; read off a plot
[8] = biological target: human FcγRIIIA (UniProt P08637); settings: Fc 20 µg/ml (highest point of the titration); parent: est. 0.99; read off a plot
Sequence of human FcγRIIIA (P08637 17-208): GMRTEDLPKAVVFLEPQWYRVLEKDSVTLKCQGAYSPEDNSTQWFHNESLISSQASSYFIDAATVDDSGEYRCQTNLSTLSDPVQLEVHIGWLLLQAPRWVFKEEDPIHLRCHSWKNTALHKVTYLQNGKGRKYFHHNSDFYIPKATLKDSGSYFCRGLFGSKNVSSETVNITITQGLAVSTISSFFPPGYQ

Sequence of human FcγRIIB (P31994 43-217): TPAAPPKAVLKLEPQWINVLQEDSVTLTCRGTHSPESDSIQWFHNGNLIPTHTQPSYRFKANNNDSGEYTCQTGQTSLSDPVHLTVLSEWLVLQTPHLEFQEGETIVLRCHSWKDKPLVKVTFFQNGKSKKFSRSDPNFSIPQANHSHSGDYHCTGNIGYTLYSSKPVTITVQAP
Sequence of human FcγRI (P12314 16-292): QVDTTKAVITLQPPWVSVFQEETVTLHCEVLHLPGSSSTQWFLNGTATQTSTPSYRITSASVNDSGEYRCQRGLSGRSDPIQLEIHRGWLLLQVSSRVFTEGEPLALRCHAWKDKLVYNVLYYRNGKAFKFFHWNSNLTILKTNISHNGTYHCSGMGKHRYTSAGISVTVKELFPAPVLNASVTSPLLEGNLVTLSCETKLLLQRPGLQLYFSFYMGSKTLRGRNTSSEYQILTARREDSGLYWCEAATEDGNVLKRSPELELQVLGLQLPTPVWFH
Sequence of human Siglec-1 (Q9BZZ2 20-1641): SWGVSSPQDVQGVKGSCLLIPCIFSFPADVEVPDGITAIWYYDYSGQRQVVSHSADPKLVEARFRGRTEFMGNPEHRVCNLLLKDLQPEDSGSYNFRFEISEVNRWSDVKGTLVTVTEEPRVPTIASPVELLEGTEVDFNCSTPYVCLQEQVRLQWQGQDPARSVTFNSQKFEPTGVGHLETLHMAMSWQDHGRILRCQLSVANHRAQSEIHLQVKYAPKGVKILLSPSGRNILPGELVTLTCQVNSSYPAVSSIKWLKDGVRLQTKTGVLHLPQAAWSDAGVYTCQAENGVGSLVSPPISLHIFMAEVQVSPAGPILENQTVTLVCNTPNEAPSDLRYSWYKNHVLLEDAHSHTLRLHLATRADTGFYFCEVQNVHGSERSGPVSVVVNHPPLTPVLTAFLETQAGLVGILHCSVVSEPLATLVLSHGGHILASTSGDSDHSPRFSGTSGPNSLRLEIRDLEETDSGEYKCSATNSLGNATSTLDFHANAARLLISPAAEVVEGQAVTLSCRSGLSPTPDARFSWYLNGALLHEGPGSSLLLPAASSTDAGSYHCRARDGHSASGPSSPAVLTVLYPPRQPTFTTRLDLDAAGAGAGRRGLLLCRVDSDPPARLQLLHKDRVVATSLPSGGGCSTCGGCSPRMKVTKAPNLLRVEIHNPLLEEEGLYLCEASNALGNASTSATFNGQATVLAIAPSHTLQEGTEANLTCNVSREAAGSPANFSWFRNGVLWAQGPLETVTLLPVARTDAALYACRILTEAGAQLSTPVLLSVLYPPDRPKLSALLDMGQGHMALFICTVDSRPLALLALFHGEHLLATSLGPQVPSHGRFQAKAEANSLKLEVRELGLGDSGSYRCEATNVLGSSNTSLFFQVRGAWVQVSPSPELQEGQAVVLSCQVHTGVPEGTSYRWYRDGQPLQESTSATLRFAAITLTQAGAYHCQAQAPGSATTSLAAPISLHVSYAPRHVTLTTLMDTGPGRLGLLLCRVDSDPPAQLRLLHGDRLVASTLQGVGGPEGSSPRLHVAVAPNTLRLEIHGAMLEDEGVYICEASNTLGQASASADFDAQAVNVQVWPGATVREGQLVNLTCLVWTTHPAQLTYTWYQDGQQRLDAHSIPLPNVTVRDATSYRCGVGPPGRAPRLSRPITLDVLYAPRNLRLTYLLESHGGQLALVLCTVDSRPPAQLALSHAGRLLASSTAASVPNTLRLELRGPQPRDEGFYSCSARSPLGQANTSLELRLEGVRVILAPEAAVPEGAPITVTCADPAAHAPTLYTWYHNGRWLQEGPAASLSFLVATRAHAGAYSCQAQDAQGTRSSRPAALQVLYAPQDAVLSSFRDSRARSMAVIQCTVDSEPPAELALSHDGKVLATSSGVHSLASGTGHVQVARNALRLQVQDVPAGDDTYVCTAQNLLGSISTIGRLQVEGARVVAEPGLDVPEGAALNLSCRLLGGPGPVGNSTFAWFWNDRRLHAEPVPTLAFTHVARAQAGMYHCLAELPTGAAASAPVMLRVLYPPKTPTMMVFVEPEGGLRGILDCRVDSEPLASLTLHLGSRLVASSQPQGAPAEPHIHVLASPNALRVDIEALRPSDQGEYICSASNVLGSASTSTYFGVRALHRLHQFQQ
Sequence of human FcγRIIA (P12318 34-217): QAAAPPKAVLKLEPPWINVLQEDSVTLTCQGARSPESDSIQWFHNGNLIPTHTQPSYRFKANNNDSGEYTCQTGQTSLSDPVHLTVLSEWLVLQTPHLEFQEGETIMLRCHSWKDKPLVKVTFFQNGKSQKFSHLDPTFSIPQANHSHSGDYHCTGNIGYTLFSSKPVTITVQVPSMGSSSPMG
Sequence of human FcγRIIIB (O75015 17-200): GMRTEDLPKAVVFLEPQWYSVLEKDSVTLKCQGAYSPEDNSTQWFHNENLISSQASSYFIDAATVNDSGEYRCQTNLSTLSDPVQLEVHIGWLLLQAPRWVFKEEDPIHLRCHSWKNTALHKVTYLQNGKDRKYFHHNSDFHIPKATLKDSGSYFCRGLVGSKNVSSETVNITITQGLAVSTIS

| Substance | response [1] [OD 405nm] | response [2] [OD 405nm] | response [3] [OD 405nm] | response [4] [OD 405nm] | response [5] [OD 405nm] | response [6] [OD 405nm] | response [7] [OD 405nm] | response [8] [OD 405nm] |
| --- | --- | --- | --- | --- | --- | --- | --- | --- |
| hexa-Fc (human IgG1-Fc with L309C/H310L and the 18-amino acid IgM tail piece) N563A | 0.84 | 2.3 | – | – | – | – | – | – |
| hexa-Fc (human IgG1-Fc with L309C/H310L and the 18-amino acid IgM tail piece) N297A; N563A | 0.27 | 0.97 | 0.15 | – | – | – | – | – |
| hexa-Fc (human IgG1-Fc with L309C/H310L and the 18-amino acid IgM tail piece) D221N | 0.64 | 1.8 | 1.2 | 0.073 | 0.08 | 0.24 | 0.12 | 0.09 |
| hexa-Fc (human IgG1-Fc with L309C/H310L and the 18-amino acid IgM tail piece) D221N; N297A; N563A | 0.37 | 0.9 | 1.7 | – | – | – | – | – |
| hexa-Fc (human IgG1-Fc with L309C/H310L and the 18-amino acid IgM tail piece) D221N; N563A | 0.57 | 2.2 | 1.6 | 0.1 | 0.12 | 2 | 0.33 | 1.6 |
| hexa-Fc (human IgG1-Fc with L309C/H310L and the 18-amino acid IgM tail piece) D221N; N297A | 0.33 | 0.93 | 0.96 | 0.073 | 0.069 | 0.065 | 0.065 | 0.07 |
| hexa-Fc (human IgG1-Fc with L309C/H310L and the 18-amino acid IgM tail piece) N297A | 0.28 | 0.9 | – | 0.073 | 0.069 | 0.065 | 0.065 | 0.07 |
